# Values quoted from earlier work in article PMC5615855.
# Biological target: N2B (HEB) N2B (Homo sapiens) (UniProt Q99081)
substance,measurement,value
NHR2 (AML1-ETO) NHR2 (from UniProt Q06455),Kd,356 µM
